Drawing on paper PMC12616241 (2025), this text covers Kd for 1 molecule.

Common to all, as to test: SPR
The target in test [1] is FcγRIIa-R131.
Test [2] addresses FcγRIIa-H131.
Test [3] concerns the target FcγRIIIa-V158 (His-tagged recombinant) (human).
In test [4] the target is FcγRIIIa-F158 (His-tagged recombinant) (human, UniProt P08637 17-208).
Chain of FcγRIIIa-F158 (His-tagged recombinant) (P08637 17-208): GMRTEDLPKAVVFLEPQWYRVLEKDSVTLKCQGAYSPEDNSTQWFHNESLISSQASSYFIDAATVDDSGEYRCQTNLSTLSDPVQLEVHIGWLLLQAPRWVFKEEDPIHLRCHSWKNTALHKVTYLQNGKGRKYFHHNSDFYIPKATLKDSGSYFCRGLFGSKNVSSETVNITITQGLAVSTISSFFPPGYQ

Chain of FcγRIIIa-V158 (His-tagged recombinant) (human) (chain, as listed by the source): as the sequence (P08637 17-208) above, with F160V counted along it

B1: margetuximab (antibody)
chain 1: QVQLQQSGPELVKPGASLKLSCTASGFNIKDTYIHWVKQRPEQGLEWIGRIYPTNGYTRYDPKFQDKATITADTSSNTAYLQVSRLTSEDTAVYYCSRWGGDGFYAMDYWGQGASVTVSS
chain 2: DIVMTQSHKFMSTSVGDRVSITCKASQDVNTAVAWYQQKPGHSPKLLIYSASFRYTGVPDRFTGSRSGTDFTFTISSVQAEDLAVYYCQQHYTTPPTFGGGTKVEIK
By Kd is commonly meant the equilibrium constant for the complex coming apart. For the molecule B1, the Kd in test [1] is 1440 nM; in test [2] it was 764 nM; in test [3] it was 91.7 nM; in test [4], 113 nM.
